Laboratory results published in US20210179728A1 (OSE IMMUNOTHERAPEUTICS, published 2021).
One block for each binder: values may come before it.

Experiments:
[1] = target: T1, recombinant hSIRPa (Sino Biologicals, reference 11612-H08H) (human, UniProt P78324 31-370); assay: ELISA on immobilized hSIRPa-His, anti-human IgG detection, first experiment; first experiment
T1 construct: also called SIRPa-His; human SIRPa-His; not shown: His tag (histidine tail)
Method: Method: The binding activity of the anti-SIRPa antibodies was assessed by ELISA.

[2] = target: T1, recombinant hSIRPa (Sino Biologicals, …); assay: SPR (Biacore); SIRPa-His immobilized on CM5 chip, antibody injected
Method: FIG. 2. Affinity analysis by Biacore of anti-SIRP antibodies on human SIRPa recombinant protein. SIRPa-His recombinant protein was immobilized onto a CM5 chip at 5 μg/ml (500 RU) and the indicated antibodies were added at different concentration.
Method: Recombinant hSIRPa (Sino Biologicals, Beijing, China; reference 11612-H08H) was immobilized into a CM5 sensor chip (GeHealthcare; France) at 5 μg/ml (500 RU) and antibodies were applied at different concentrations with a flow rate of 40 μl/min. Analysis was performed with a BIAcore 3000 (Biacore, GeHealthcare).

[3] = target: T1, recombinant hSIRPa (Sino Biologicals, …); assay: competition ELISA on immobilized SIRPa-His; competitor biotinylated CD47-Fc at 6 ug/ml, streptavidin-peroxidase [second experiment table]
Method: (§1) Method: For competitive ELISA assay, recombinant hSIRPa (Sino Biologicals, Beijing, China; reference 11612-H08H) was immobilized on plastic at 0.5 μg/ml in carbonate buffer (pH9.2).

[4] = target: T2, recombinant hSIRPb-His (Antibodies-online, reference ABIN3077231) (human, UniProt Q5TFQ8 30-371); assay: BLI (Blitz); SIRPb-His on Ni-NTA biosensor, antibody at 20 ug/ml [B, table A]
T2 construct: also called SIRPb-His (Blitz); not shown: His tag
Method: FIG. 7. (A) Affinity analysis by Blitz of anti-SIRP antibodies on human SIRPb recombinant protein. SIRPb-His recombinant protein was immobilized onto a NINTA biosensor and the indicated antibodies were added at 20 μg/ml. […] (B) Binding analysis of anti-SIRP antibodies (human SIRPb-His coating and anti-human kappa detection).
Method: This method was performed with a Blitz (Forte Bio; USA; reference C22-2 No 61010-1). Recombinant hSIRPb-His (Antibodies-online; USA; reference ABIN3077231) was immobilized at 10 μg/ml by histidine tail into a Ni-NTA biosensor (Forte Bio; USA; reference 18-0029) for 30 seconds. Then, an anti-SIRPa antibody was associated at 20 μg/mL for 120 seconds. The dissociation of anti-SIRPa antibody was made in kinetics buffer for 120 seconds. Analysis of data was made with the Blitz pro 1.2 software, which calculated association constant (ka) and dissociation constant (kd) and determined the affinity constant KD […].

[5] = target: T1, recombinant hSIRPa (Sino Biologicals, …); assay: ELISA on immobilized SIRPa-His, peroxidase anti-human IgG, DO 450nm [all panels]
Method: (§2) Method: For ELISA assay, recombinant hSIRPa (Sino Biologicals, Beijing, China; reference 11612-H08H) was immobilized on plastic at 0.5 μg/ml in carbonate buffer (pH9.2) and different modified anti-SIRPa antibodies were added to measure binding to SIRPa.

[6] = target: T1, recombinant hSIRPa (Sino Biologicals, …); assay: competition ELISA on coated SIRPa-His; competitor biotinylated CD47-Fc at 6 ug/ml, streptavidin-peroxidase [panel PDL1]
Method: as §1

[7] = target: T3, PD1His (human, UniProt Q15116 25-170, limits assumed); assay: ELISA: modified antibody (concentration on the axis) captured on SIRPa-His, then PD1His, detected with mouse anti-His [panel PDL1]
T3 construct: not shown: His tag
Source text: (§3) FIG. 24. Ligand binding assay with the different modified anti-SIRPa antibodies by ELISA.

[8] = target: T1, recombinant hSIRPa (Sino Biologicals, …); assay: competition ELISA on coated SIRPa-His; competitor biotinylated CD47-Fc at 6 ug/ml, streptavidin-peroxidase [panel 4-1BBL]
Method: as §1

[9] = target: T4, PDL1Fc (human, UniProt Q9NZQ7 19-238); assay: ELISA: modified antibody (concentration on the axis) captured on SIRPa-His, then PDL1Fc, detected with mouse anti-human PDL1 [panel PD1]
T4 construct: not shown: Fc; not specified
Source text: as §3

[10] = target: T1, recombinant hSIRPa (Sino Biologicals, …); assay: ELISA on immobilized SIRPa-His, peroxidase anti-human IgG, DO 450nm [panel PD1]
Method: as §2

[11] = target: T1, recombinant hSIRPa (Sino Biologicals, …); assay: competition ELISA on coated SIRPa-His; competitor biotinylated CD47-Fc at 6 ug/ml, streptavidin-peroxidase [panel PD1]
Method: as §1

[12] = target: T5, 4-1BBFcHis (UniProt Q07011 24-186); assay: ELISA: modified antibody (concentration on the axis) captured on SIRPa-His, then 4-1BBFcHis, detected with mouse anti-His [panel 4-1BBL]
T5 construct: not shown: Fc and His tag; not specified
Source text: as §3

[13] = target: T1, recombinant hSIRPa (Sino Biologicals, …); assay: ELISA on immobilized SIRPa-His, peroxidase anti-human IgG, DO 450nm [panel 4-1BBL]
Method: as §2

[14] = target: T6, CD28Fc (human, UniProt P10747 19-152, limits assumed); assay: ELISA: modified antibody (concentration on the axis) captured on SIRPa-His, then CD28Fc, detected with mouse anti-human CD28 [panel ICOSL]
T6 construct: not shown: Fc; not specified
Source text: as §3

[15] = target: T1, recombinant hSIRPa (Sino Biologicals, …); assay: ELISA on immobilized SIRPa-His, peroxidase anti-human IgG, DO 450nm [panel ICOSL]
Method: as §2

EC50 [1]: 0.0044 µg/mL | Kd [2]: 0.289 nM | koff [2]: 0.000189 s⁻¹ | kon [2]: 654000 M⁻¹ s⁻¹ | IC50 [3]: 0.186 µg/mL | Kd [4]: 86.9 nM | koff [4]: 0.00171 s⁻¹ | kon [4]: 19400 M⁻¹ s⁻¹ | EC50 (read off the curve) [5]: ~0.01 µg/mL
B1: HEFLB (antibody, human IgG4 S228P, kappa)
heavy: not shown
light: DVVMTQSPLSLPVTLGQPASISCRSSQSLVHSYGNTYLYWFQQRPGQSPRLLIYRVSNRFSGVPDRFSGSGSGTDFTLKISRVEAEDVGVYYCFQGTHVPYTFGGGTKVEIKRTVAAPSVFIFPPSDEQLKSGTASVVCLLNNFYPREAKVQWKVDNALQSGNSQESVTEQDSKDSTYSLSSTLTLSKADYEKHKVYACEVTHQGLSSPVTKSFNRGEC
notes: humanized 18D5 variant; IgG4m (S228P) / kappa; also called anti-SIRPa HEFLB

IC50 (read off the curve) [6]: ~0.3 µg/mL | binding result [7]: binds
B2: modified anti-SIRPa HEFLB antibody with ECD of PDL1 on the heavy chain (antibody, human IgG4 S228P, kappa)
heavy: not shown
light: B1 light
notes: as m25, ECD of PDL1; also called VHprot+VL (PDL1); VH-PDL1

IC50 (read off the curve) [8]: ~0.3 µg/mL
B3: modified anti-SIRPa HEFLB antibody with ECD of 4-1BBL on the heavy chain (antibody, human IgG4 S228P, kappa)
heavy: not shown
light: B1 light
notes: as m25, ECD of 4-1BBL; also called VHprot+VL (4-1BBL); VH-4-1BBL

binding result [9]: binds | EC50 (read off the curve) [10]: ~0.008 µg/mL | IC50 (read off the curve) [11]: ~0.2 µg/mL
B4: modified anti-SIRPa HEFLB antibody with ECD of PD1 on the heavy chain (antibody, human IgG4 S228P, kappa)
heavy: not shown
light: B1 light
notes: also called VHprot+VL (PD1); HEF-PD1 + LB

EC50 (read off the curve) [12]: ~0.2 µg/mL | EC50 (read off the curve) [13]: ~0.007 µg/mL
B5: modified anti-SIRPa HEFLB antibody with ECD of 4-1BBL on the light chain (antibody, human IgG4 S228P, kappa)
heavy: not shown
light: DVVMTQSPLSLPVTLGQPASISCRSSQSLVHSYGNTYLYWFQQRPGQSPRLLIYRVSNRFSGVPDRFSGSGSGTDFTLKISRVEAEDVGVYYCFQGTHVPYTFGGGTKVEIKRTVAAPSVFIFPPSDEQLKSGTASVVCLLNNFYPREAKVQWKVDNALQSGNSQESVTEQDSKDSTYSLSSTLTLSKADYEKHKVYACEVTHQGLSSPVTKSFNRGECGGGGSGGGGSGGGGSREGPELSPDDPAGLLDLRQGMFAQLVAQNVLLIDGPLSWYSDPGLAGVSLTGGLSYKEDTKELVVAKAGVYYVFFQLELRRVVAGEGSGSVSLALHLQPLRSAAGAAALALTVDLPPASSEARNSAFGFQGRLLHLSAGQRLGVHLHTEARARHAWQLTQGATVLGLFRVTPEIPAGLPSPRSE
notes: as m32, ECD of 4-1BBL; also called VH+VLprot (4-1BBL); HEF + LB-4-1BBL

binding result [14]: binds | EC50 (read off the curve) [15]: ~0.006 µg/mL
B6: modified anti-SIRPa HEFLB antibody with ECD of ICOSL on the light chain (antibody, human IgG4 S228P, kappa)
heavy: not shown
light: DVVMTQSPLSLPVTLGQPASISCRSSQSLVHSYGNTYLYWFQQRPGQSPRLLIYRVSNRFSGVPDRFSGSGSGTDFTLKISRVEAEDVGVYYCFQGTHVPYTFGGGTKVEIKRTVAAPSVFIFPPSDEQLKSGTASVVCLLNNFYPREAKVQWKVDNALQSGNSQESVTEQDSKDSTYSLSSTLTLSKADYEKHKVYACEVTHQGLSSPVTKSFNRGECGGGGSGGGGSGGGGSDTQEKEVRAMVGSDVELSCACPEGSRFDLNDVYVYWQTSESKTVVTYHIPQNSSLENVDSRYRNRALMSPAGMLRGDFSLRLFNVTPQDEQKFHCLVLSQSLGFQEVLSVEVTLHVAANFSVPVVSAPHSPSQDELTFTCTSINGYPRPNVYWINKTDNSLLDQALQNDTVFLNMRGLYDVVSVLRIARTPSVNIGCCIENVLLQQNLTVGSQTGNDIGERDKITENPVSTGEKNAAT
notes: as m32, ECD of ICOSL; also called VH+VLprot (ICOSL); HEF + LB-ICOSL
